The target of test [1] is T1, DENV-4 VLP (Dengue virus serotype 4, strain …, UniProt P09866 114-774). The test is described as follows: Luminex, VLP-coupled beads.
Test [2] deals with T1, DENV-4 VLP.
In test [3] the target is T2, JE VLP (Japanese encephalitis virus, UniProt P27395).
T2 construct: virus-like particle; also called Japanese Encephalitis Virus VLP
Kind of test: Luminex bead assay (antigen on MagPlex beads, MFI).

Test [4] deals with T2, JE VLP. Kind of test: Luminex bead assay (antigen on MagPlex beads, MFI). This is another data set of the same source.
Test [5] has as its target T1, DENV-4 VLP. Kind of test: Luminex bead assay (antigen on MagPlex beads, MFI).
Test [6] deals with T2, JE VLP. The test is described as follows: Luminex bead assay (antigen on MagPlex beads, MFI). The source holds these as a separate data set.
In test [7] the target is T2, JE VLP. Kind of test: Luminex bead assay (antigen on MagPlex beads, MFI). This is another data set of the same source.
For test [8], the target named is T1, DENV-4 VLP. Kind of test: Luminex bead assay (antigen on MagPlex beads, MFI). This is another data set of the same source.

Like-named read-outs stand apart in the source and are kept apart here. Where only a bound is given, the exact number is not on record here.

We go through 10 molecules from patent publication US20260167703A1 (Takeda / Millennium, published 2026).

In general, EC50 refers to the concentration giving half of the maximal effect. Lower therefore signals a more potent agent. In general, koff refers to the first-order rate constant of dissociation. Higher therefore signals a short-lived complex.

T2 sequence (P27395 128-794 limits assumed): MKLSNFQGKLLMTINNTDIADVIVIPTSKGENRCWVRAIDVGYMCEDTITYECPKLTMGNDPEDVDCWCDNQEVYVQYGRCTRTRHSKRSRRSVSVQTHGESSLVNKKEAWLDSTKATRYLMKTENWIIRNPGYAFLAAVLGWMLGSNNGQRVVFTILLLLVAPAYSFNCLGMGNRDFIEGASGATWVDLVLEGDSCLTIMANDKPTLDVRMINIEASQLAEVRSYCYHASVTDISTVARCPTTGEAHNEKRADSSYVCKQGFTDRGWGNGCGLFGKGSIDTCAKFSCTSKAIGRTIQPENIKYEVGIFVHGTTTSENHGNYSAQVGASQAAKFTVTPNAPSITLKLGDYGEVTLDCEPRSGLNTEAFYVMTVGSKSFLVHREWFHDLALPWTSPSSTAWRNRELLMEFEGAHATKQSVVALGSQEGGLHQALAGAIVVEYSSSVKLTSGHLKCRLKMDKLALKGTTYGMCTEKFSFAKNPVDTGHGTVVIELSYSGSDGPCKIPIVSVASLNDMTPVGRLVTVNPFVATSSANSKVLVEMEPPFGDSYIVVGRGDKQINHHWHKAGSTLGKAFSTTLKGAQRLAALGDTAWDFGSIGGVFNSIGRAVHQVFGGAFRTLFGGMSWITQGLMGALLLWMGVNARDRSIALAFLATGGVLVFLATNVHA

B1: DENV4-5B11 (antibody, V domains shown)
VH: QSVEESGGRLVTPGTPLTLTCTVSGFSLSDSAMSWVRQAPGKGLEWIGYIYAGSGTTYYASWAKGRFTISKTSTTVDLKITSPTTEDTATYFCARATAYVGYGYGDDTFDPWGPGTLVTVSS
VL: AYDMTQTPASVEVAVGGTVTIKCQASQSISSYLSWYQQKPGQRPKLLIYRASTLASGVSSRFKGSGSGTEFTLTISGVQCDDAATYYCQQGYSNSDVDNVFGGGTEVVVK
notes: also called Clone 5B11
Regarding B1, it took 0.0192 µg/mL to reach a half-maximal effect with DENV-4 VLP [1] (EC50). For the same molecule, in the test with DENV-4 VLP [2], the “Response (nm)” value stood at 2.39 nm and the koff was found to be 2.36e-05 s⁻¹. Further, the binding result with JE VLP [3] is reported as “no binding (tested: 10000 ng/mL)”.

B2: DENV4-7G4 (antibody, V domains shown)
VH: QSVEESGGRLVTPGTPLTLTCTVSGFSLSSCAMTWVRQAPGKGLEWIGYIYVDSDTTYYASWAKGRFTISTTSTTVDLRITSPTTEDTATYFCARTTAYVGGGYGDDTFDPWGPGTLVTVSS
VL: DVVMTQTPASVEAAVGGTVTINCQASQNINSYLSWYQQKPGQRPKLLIYRAFTLASGVSSRFKGSGSGTQFTLTISGVECADAATYYCQQGYSFSGVDNVFGGGTEVVVK
notes: also called Clone 7G4
B2: in the test with DENV-4 VLP [1], the EC50 stood at 0.0214 µg/mL. In the test with DENV-4 VLP [2], the “Response (nm)” value is 2.16 nm and the koff was below 2e-05 s⁻¹. In addition, the binding result with JE VLP [3] is reported as “no binding (tested: 10000 ng/mL)”.

B3: DENV2-5F4 (antibody, V domains shown)
VH: QSVEESGGRLVKPDETLTLTCTVSGIDLSNTVISWVRQAPGKGLEYIGMITPSGSAYSATWAKGRVTISRTSTTVDLKIASPTTEDTATYFCARIAWSTGRNDIWGPGTLVTVSS
VL: AAVLTQTPPSVSAAVGGTVTIKCQSSQSVYNNNALSWYQQKPGQPPKLLIYQASKLSSGVSSRFSGSGSGTHFTLTISGVQCDDAATYYCLGIYDDDVDNTFGGGTEVVVG
Regarding B3, the binding result with JE VLP [4] and with DENV-4 VLP [5] was “no binding (tested: 10000 ng/mL)” each time.

B4: DENV2-8D8 (antibody, V domains shown)
VH: QSLEESGGRLVKPDETLTLTCTVSGIDLSSTIITWVRQAPGKGLEYIGIIGSSGSIISANWAKGRFTISRTSTTVDLKMTSLTTEDTATYFCARIAWSTGRNDIWGPGTLVTVSS
VL: AAVLTQTPPSVSAAVGGTVTISCQSSQSVYNNNALSWYQQKPGQPPKLLIYLASNLASGVPSRFSGSGSGTQFTLTISGVQCDDAATYHCLGVDDDDVDNTFGGGTEVVVK
For the molecule B4, the binding result with JE VLP [4] and in the test with DENV-4 VLP [5] was “no binding (tested: 10000 ng/mL)” in each case.

B5: DENV4-9G8 (antibody, V domains shown)
VH: QSLEESGGGLVKPGASLTLTCTASGFSFSYRYWMSWVRQAPGKRPEWIACIDTGNGDTYYASRAKGRFTIMKTSSTTVTLQMTSLTVADTATYFCARSDVTLTGYGYGNLWGPGTLVTVSS
VL: DSVMTQTPASVSEPVGGTVTINCQASHNIYNSLAWYQQKPGQPPKLLIYRASTLESGVPSRVKGSGYGTEYTLTISDLECADAATYYCQQYYGGDDDGFGFGGGTEVVVK
notes: also called Clone 9G8
For the molecule B5, the response with DENV-4 VLP [1] was half-maximal at 0.0713 µg/mL (EC50). Also, in the test with DENV-4 VLP [2], the “Response (nm)” value is 0.137 nm and the koff was below 2e-05 s⁻¹. For the same molecule, the binding result with JE VLP [6] is “no binding (tested: 10000 ng/mL)”.

B6: DENV4-7D5 (antibody, V domains shown)
VH: QSVEESGGRLVTPGTPLTLTCTVSGIDLSSWEMGWVRQAPGKGLEWIGIIFPSGTIYYANWAKGRFAISKASTTVDLKITSPTTEDTATYFCGRHGGSLYLNIWGPGTLVTVSL
VL: AQVLTQTPSPVSAAVGGTVTINCQASQSVYVNRNLAWYQQKPGQPPKVLIYEASKLASGVPSRFKGSGSGTQFTLTISGVQCDDAATYYCQGEFGCSSADCIAFGGGTEVVVK
notes: also called Clone 7D5
In the test with DENV-4 VLP [1], B6 displayed an EC50 of 0.0232 µg/mL. Besides, in the test with DENV-4 VLP [2], the “Response (nm)” value stood at 2.45 nm and the koff was 3.56e-05 s⁻¹. Besides, the binding result with JE VLP [3] is listed as “no binding (tested: 10000 ng/mL)”.

B7: DENV4-8C7 (antibody, V domains shown)
VH: QSVEESGGRLVTPGTPLTLTCTVSGIDLSSYEMGWVRQAPGKGLEWIGIIFPSGTIYYANWAKGRFTISKTSTTVDLKITSPTTEDTATYFCGRHGGSLYLNIWGPGTLVTVSL
VL: AQVLTQTPSPVSAAVGGTVTINCQASQSVYVNRNLAWYQQKPGQPPKVLIYEASKLASGVPSRFKGSGSGTQFTLTISGVQCDDAATYYCQGEFGCSSADCIAFGGGTEVVVK
notes: also called Clone 8C7
Molecule B7 showed an EC50 with DENV-4 VLP [1] of 0.0176 µg/mL. Moreover, in the test with DENV-4 VLP [2], the “Response (nm)” value came to 2.38 nm and the koff stood at 3.32e-05 s⁻¹. The binding result in the test with JE VLP [6] is “no binding (tested: 10000 ng/mL)”.

B8: DENV2-3H11 (antibody, V domains shown)
VH: QSVEESGGRLVTPGTPLTLTCTVSGFSLINYDMSWIRQAPGKGLEWIGMVSGGGHTNYASWANGRFTISKTSSTTMDLKITSPTTEDTASYFCGRWDIWGPGTLVTVSL
VL: AVVVTQTASPVSAAVGGTVTISCQSSQSVYDDNWLAWYQQKPGQPPKQLIYRASRLASGVPSRFSGTGSGTQFTLTISGVQCDDAATYYCLGGYVDDGDTTFGGGTEVVVK
notes: also called DENV2-3H111
Take B8: the binding result in the test with JE VLP [7] and with DENV-4 VLP [8] was “no binding (tested: 10000 ng/mL)” throughout.

B9: DENV4-7F2 (antibody, V domains shown)
VH: QSVEESGGRLVTPGTPLTLTCTVSGIDLSYYAMGWVRQAPGEGLECIGFIDTGDSAYYASWAKGRFTISKTSSTTVDLKITSPTPEDTATYFCGRSLSSYYDWDAFDPWGPGTLVTVSS
VL: AYDMTQTPASVEVAVGGTVTINCQASQTIGNLLAWYQQKPGQRPKLLIYRASTLASGVPSRFKGSGSGTQFTLTISGVECADAATYYCQQGASANDIDNSFGGGTAVVVK
notes: also called Clone 7F2
With B9, in the test with DENV-4 VLP [1], the EC50 was 0.0407 µg/mL. Moreover, in the test with DENV-4 VLP [2], the “Response (nm)” value is 2.32 nm and the koff was 3.67e-05 s⁻¹. The binding result with JE VLP [3] is on record as “no binding (tested: 10000 ng/mL)”.

B10: DENV4-10A11 (antibody, V domains shown)
VH: QSVEESGGRLVTPGTPLTLTCTVSGINLSFYAMGWVRQAPGKGLECVGFIDTDNSAYYASWAKGRFTISKTSTTVDLKITSPTTEDTATYFCARSLSSFYDWDAFDPWGPGTLVTVSS
VL: AYDMTQTPASVEVAVGGTVTIKCLASQSISNLLAWYQQKPGQRPKLLIYRASTLASGVPSRFKGSGSGTQFTLTISGVECADAATYYCQQGASNSDIDNAFGGGTEVVVK
notes: also called Clone 10A11; 10A1l
In turn, B10 returned an EC50 in the test with DENV-4 VLP [1] of 0.0236 µg/mL. For the same molecule, in the test with DENV-4 VLP [2], the “Response (nm)” value worked out at 2.17 nm and the koff came to 4.17e-05 s⁻¹. For the same molecule, the binding result in the test with JE VLP [6] was “no binding (tested: 10000 ng/mL)”.
